Values of other authors in article PMC6803667, “Binding site plasticity in viral PPxY Late domain recognition by the third WW domain of human NEDD4” (Scientific Reports, 2019).

Molecular target: ARRDC3 peptide (Homo sapiens)

Chain of NEDD4 WW3 (P46934 837-876): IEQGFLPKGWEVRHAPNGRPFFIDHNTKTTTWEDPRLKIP

Kd: 3000 nM
Substance: NEDD4 WW3 (from UniProt P46934)
